B1: SC06-415 (scFv)
scFv: EVQLVESGGGLVQPGRSLRLSCAASGFTFDDYAMHWVRQAPGKGLEWVSGISWNSGSIGYADSVKGRFTISRDNAKNSLYLQMNSLRAEDSAVYYCARGGQRFDFWGQGTLVTVSSGTGGSGGTGSGTGGSTQSALTQPPSASGSPGQSVTISCTGTSSDVGGYNYVSWYQQLPGKAPKLLIYDVNNRPSGVSNRFSGSKSGNTASLTISGLQAEDEAEYYCGSSVGSRLRIFGGGTKLTVL
notes: Vl 133-242); also called single-chain phage antibody SC06-415
B2: SC06-016 (scFv)
scFv: QVQLVQSGPEVKKPGASVTVSCKASGYSFSSYGISWVRQAPGQGLEWMGRIIPVGGNTLYSQMFQGRVTMTSDTSTSTVYLELSSLRSEDTAVYFCARDGGRWQFDYWGQGTLVTVSSGTGGSGGTGSGTGGSTDIQLTQSPSSVSASVGDRVTITCRASQGISNWLAWYQQKPGKAPELLIYAASSLQSGVPPRFSGSASGTDFTLTISSLQPEDFATYYCQQSKNFPYTFGQGTKVEIK
notes: Vl 135-241); also called single-chain phage antibody SC06-016
B3: SC06-252 (scFv)
scFv: EVQLVETGGGLVQPGGSLRLSCAASGLTFSSYAMSWVRQAPGKGLEWVSALSGSTTFYADSVKGRFTISRDNAKNTLYLQMNSLRAEDTAVYYCARGNYYGMDVWGQGTTVTVSSGTGGSGGTGSGTGGSTSYVLTQPPSASGTPGQRVTISCSGSSSNIGKFYVYWYQQFPGAAPKLLIYSNNQRPSGVPDRFSGSKSGTSASLAISGLQSEDEADYYCAAWDGSLNGYVFGTGTKVTVL
notes: Vl 132-241); also called single-chain phage antibody SC06-252
B4: SC05-187 (scFv)
scFv: EVQLVQSGAEVKKPGESLKISCKGSGYSFTKYWIGWVRQMPGKGLEWMGIIYPGDSDTRYSPSFQGQVTISADKSISTAYLQWSSLKASDTAMYYCARGSGIATGNSFDSWGQGTLVTVSSGTGGSGGTGSGTGGSTQTVVTQEPSLTVSPGGTVTLTCASSTGAVTSGYYPNWFQQKPGQAPRALIYSTSKKHSWTPARFSGSLLGGRAALTLSGAQPEDEADYYCLLSYGGARVFGGGTKLTVL
notes: Vl 138-246); also called single-chain phage antibody SC05-187
B5: SC05-159 (scFv)
scFv: QVQLVQSGAEVKKPGATVKISCKVSGYTFTDYYMHWVQQAPGKGLEWMGLVDPEDGETIYAEKFQGRVTITADTSTDTAYMELSSLRSDDTAVYYCARAEVMTTINNWYFDLWGRGTLVTVSSGTGGSGGTGSGTGGSTSYVLTQPPSASGTPGQRVTISCSGSSSNIGSNNVSWYQQLPGTAPKLLIYSNNQRPSGVPDRFSGSKSGTSASLAISGLQSEDEADYYCAAWDDSLNGWVFGGGTKLTVL
notes: Vl 140-249); also called single-chain phage antibody SC05-159
B6: SC05-179 (scFv)
scFv: EVQLVESGGGLVKPGGSLGLSCAASGFFFSDYSMSWIRQAPGKGLEWLSNISGSGHSTKYAESMRGRITISRDNAKKSLSLQLNSLRAEDTAVYFCVRGGGYRMDVWGQGTTVTVSSGTGGSGGTGSGTGGSTQSALTQPRSVPGSPGQSVTISCTGTSSDVGGYNYVSWYQQHPGKAPKLMIYDVSKRPSGVPDRFSGSKSGNTASLTVSGLQAEDEADYYCSSYAGSNNFVVFGGGTKLTVL
notes: Vl 134-244); also called single-chain phage antibody SC05-179
B7: SC06-049 (scFv)
scFv: QVQLVQSGAEVKKPGESLKISCKGSGYSFTSYWIGWVRQMPGKGLEWMGIIYPGDSDTRYSPSFQGQVTISADKSIGTAYLQWSSLKASDTAMYYCARLFRVRGGHFDSWGQGTLVTVSSGTGGSGGTGSGTGGSTQSALTQPASVSGSPGQSITISCTGTNSDVGGYNYVSWYQQHPGKAPKLLIYDVTNRPSGVSNRFSASKSGNTASLTISGLQAEDEADYYCSSFTSSSTRVFGGGTKLTVL
notes: Vl 137-246); also called single-chain phage antibody SC06-049
B8: SC06-409 (scFv)
scFv: EVQLVQSGAEVKKPGESLKISCKGSGYSFTNYWIGWVRQMPGKGLEWMGIIYPGDSDTRYSPSFQGQVTISADKSISTAYLQWSSLKASDTAMYYCARHTQNKNGMNTFDIWGQGTMVTVSSGTGGSGGTGSGTGGSTQSALTQPPSASGSPGQSVTISCTGTSSDIGGYNYVSWYQQHPGKAPKLMIYEVSNRPPGVSNRFSGSKSGNTASLTISGLQAEDEADYYCSSYSTTTTRVIFGGGTKLTVL
notes: Vl 139-249); also called single-chain phage antibody SC06-409
B9: SC06-429 (scFv)
scFv: QVQLVQSGAEVKNPGESLKISCKGSGYTFTSYWIGWVRQMPGKGLEWMGSIYPGDSDTRYSPSFQGQVTISVDKSISTAYLQWSSLKASDTAMYYCARQYRAGSTTRFDPWGQGTLVTVSSGTGGSGGTGSGTGGSTDVVMTQSPLSLPVTPGEPASISCRSSQSLRHRNGNNYLDWYLQKPGQSPQLLIYLGSNRASGVPDRFSGSGSGTDFTLKISRVEAEDVGIYYCMQALQTPLTFGGGTKVEIK
notes: Vl 138-249); also called single-chain phage antibody SC06-429
B10: SC06-242 (scFv)
scFv: EVQLVESGPGLVKPSETLSLTCTVSGGSISSYYWSWIRQPPGKGLEWIGYIYYTGTTNYNPSLNSRVTISADTSKNQFSLKLSSVTAADTAVYYCARGGQTAGVWGKGTTVTVSSGTGGSGGTGSGTGGSTQSVLTQPPSVSVAPGQTARITCGGYNIGRKSVHWYQQKPGLAPVLVVYDNSDRPSGIPARFSGSNSGNTATLTISGTQAMDEADYYCQAWDRGTAVFGTGTKVTVL
notes: Vl 132-237); also called single-chain phage antibody SC06-242
B11: SC06-043 (scFv)
scFv: EVQLVESGAEVKKPGESLKISCKGSGYSFTSYWIGWVRQMPGKGLEWMGIIYPGDSDTRYSPSFQGQVTISADKSISTAYLQWSSLKASDTAMYYCARRYCSGGTCSDGFDIWGQGTMVTVSSGTGGSGGTGSGTGGSTQSALTQPPSASGSPGQSVTISCTGTSSDVGGYNYVSWYQQHPGKAPKLMIYEVSKRPSGVPDRFSGSKSGNTASLTVSGLQAEDEADYYCSSYAGSNNLVFGGGTKLTVL
notes: Vl 140-249); also called single-chain phage antibody SC06-043
B12: SC06-432 (scFv)
scFv: QLQLQESGPGLVKPSQTLSLTCTVSGGSISSGGYYWSWIRQHPGKGLEWIGYIYYSGSTYYNPSLKSRVTISVDTSKNQFSLKLSSVTAADTAVYYCARERILDRMNDYWGQGTLVTVSSGTGGSGGTGSGTGGSTQSVVTQPPSVSGAPGQRVTISCTGSSSNIGAGYDVHWYQQLPGTAPKLLIYGNSNRPSGVPDRFSGSKSGTSASLAITGLQAEDEADYYCQSSDSSLNILFGGGTKLTVL
notes: Vl 137-246); also called single-chain phage antibody SC06-432
B13: SC06-246 (scFv)
scFv: EVQLVESGGGLIQPGGSLRLSCAASGFTVSSDFMTWVRQAPGRGLEWVSLIYSGGKTNYADSVKGRFTISRDNSRNTLYLQMNSLRAEDTAVYYCARSVCSTISCSKLDDWGQGTLVTVSSGTGGSGGTGSGTGGSTQAVLTQPSSVSVAPGQTARITCGGNNIGRKSVHWYQQKPGLAPVLVVNDNSDRPSGIPARFSGSNSGNTATLTISRVEAGDEADYYCHVWGSSRDHYVFGTGTKVTVL
notes: Vl 138-245); also called single-chain phage antibody SC06-246

molecular target: T1, bovine serum albumin (BSA) (bovine, UniProt P02769 25-607); experiment: phage ELISA, 1% BSA coated, anti-M13-HRP detection
T1 construct: Control antigen coated at 1% in PBS (pH 7.4); also called negative control antigen
T1 sequence (P02769 25-607 limits assumed): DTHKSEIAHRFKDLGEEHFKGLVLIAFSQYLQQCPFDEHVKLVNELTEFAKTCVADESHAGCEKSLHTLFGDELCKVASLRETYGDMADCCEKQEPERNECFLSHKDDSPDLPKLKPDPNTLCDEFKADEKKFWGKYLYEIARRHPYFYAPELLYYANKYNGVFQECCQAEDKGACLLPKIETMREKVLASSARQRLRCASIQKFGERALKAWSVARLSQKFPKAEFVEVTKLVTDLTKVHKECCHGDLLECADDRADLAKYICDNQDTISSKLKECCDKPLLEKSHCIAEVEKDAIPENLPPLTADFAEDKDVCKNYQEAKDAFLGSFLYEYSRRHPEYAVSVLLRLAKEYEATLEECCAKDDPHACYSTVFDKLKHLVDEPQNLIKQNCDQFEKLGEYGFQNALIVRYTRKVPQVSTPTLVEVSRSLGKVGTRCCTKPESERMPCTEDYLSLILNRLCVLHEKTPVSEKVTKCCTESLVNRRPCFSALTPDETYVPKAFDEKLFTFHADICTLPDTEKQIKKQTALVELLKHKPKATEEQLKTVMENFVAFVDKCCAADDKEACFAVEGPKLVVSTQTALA
Protocol: (§1) Selected single-chain phage antibodies that were obtained in the screens described above were validated in ELISA for specific enterococcal binding activity, i.e. binding to one or more enterococcal strains prepared as described supra. 2.5×10⁸ bacteria were coated overnight at 4° C. to Maxisorp™ ELISA plates in 50 μl 50 mM carbonate buffer, pH 9.6. As negative controls, the complex antigens 2% ELK and 1% BSA both in PBS (pH 7.4) were coated. Wells were washed in PBS containing 0.1% (v/v) Tween-20 and blocked with 300 μl PBS containing 2% ELK for at least 1 hour at room temperature. The selected single-chain phage antibodies were incubated for 15 minutes in an equal volume of PBS containing 2% ELK to obtain blocked phage antibodies. The plates were emptied and the blocked single-chain phage antibodies were added to the wells. Incubation was allowed to proceed for one hour at room temperature, the plates were washed in PBS containing 0.1% (v/v) Tween-20 and bound phage antibodies were detected using an anti-M13 antibody conjugated to peroxidase. Absorbance at 492 nm was measured using a spectrophotometer. As a control, the procedure was performed simultaneously without single-chain phage antibody and with a negative control single-chain phage antibody directed against West Nile virus envelope protein (SC04-374).

Binder | OD492 nm
B1 | 0.044 OD492 nm
B2 | 0.044 OD492 nm
B3 | 0.044 OD492 nm
B4 | 0.055 OD492 nm
B5 | 0.06 OD492 nm
B6 | 0.045 OD492 nm
B7 | 0.042 OD492 nm
B8 | 0.055 OD492 nm
B9 | 0.068 OD492 nm
B10 | 0.043 OD492 nm
B11 | 0.045 OD492 nm
B12 | 0.059 OD492 nm
B13 | 0.042 OD492 nm

molecular target: T1, bovine serum albumin (BSA); experiment: phage ELISA, BSA coated
Protocol: as §1

Binder | binding result
B1 | no binding
B2 | no binding
B3 | no binding
B4 | no binding
B5 | no binding
B6 | no binding
B7 | no binding
B8 | no binding
B9 | no binding
B10 | no binding
B11 | no binding
B12 | no binding
B13 | no binding
